Data set [1] deals with purified CNA (calcineurin). The data set is described as follows: In vitro calcineurin phosphatase assay (pNPP substrate). It counts as biochemical. Here is the method: (A) In vitro calcineurin phosphatase assay. Dephosphorylation of the model substrate pNPP by purified calcineurin was measured in presence of various amounts of purified calmodulin (CaM), GST-R5G42 or GST-R7G44 fusion proteins.
The inventors next explored the ability of R5G42 to modulate the enzymatic activity of its target protein. To this end, they first performed an in vitro phosphatase assay using purified CNA and para-nitrophenylphosphate (pNPP) as a substrate.
GST-aptamer fusion proteins were first produced as described above. For this experiment, GST-aptamer fusion proteins were eluted from glutathion sepharose beads using 20 mM reduced L-glutathione (Sigma), and the eluates were dialyzed overnight against a phosphatase buffer (50 mM Tris-HCl pH7.4, 0.1 mM CaCl2). The phosphatase activity of calcineurin was measured using pNPP (Sigma) as substrate, in a final volume of 100 μl. The sample solution contained 50 mM Tris-HCl (pH7.4), 0.1 mM CaCl2, 1 mM NiSO4, 0.15 mg/ml BSA (Sigma), 0.1 μM calcineurin (Upstate). Purified calmodulin (Upstate) and GST-aptamer fusion proteins were added at different concentrations (see figure legend). After a 15 min pre-incubation at 37° C., the reactions were started by adding 4.1 mM pNPP and the mixtures were incubated at 37° C. for 20 min. The nitrophenylate product was measured at 405 nm using an Envision plate reader (Perkin Elmer). The background level that was determined was subtracted using a mixture lacking calcineurin.

The subject of data set [2] is purified CNA (bovine brain purified calcineurin). In words: In vitro binding assay (affinity capture on glutathione-sepharose, western blot). As to conditions: glutathione-sepharose beads, anti-calcineurin western blot. The source says: (C) Affinity capture assay.
The inventors performed two yeast two-hybrid screening experiments against a LexA-R5G42 bait protein, using a human testis and a human fcetal brain cDNA library. They obtained 29 and 42 reconfirmed clones, respectively. […] The inventors thus retained two candidates. The highest occurring clone, from both libraries, corresponded to the NS5A-TP2 protein, recently discovered through a systematic search for genes that are transactivated by the non-structural NS5A protein from hepatitis C virus (22). No biological knowledge is currently available for this protein. The other remaining target candidate was calcineurin A (CNA), for which two different isoforms (beta and gamma) were selected from the testes library (see FIG. 3A). To confirm the interaction between R5G42 and CNA, the inventors performed an in vitro binding assay between recombinant purified GST-aptamer fusion proteins, coupled to a glutathione-sepharose matrix, and purified CNA.
In Vitro Binding Assay pVRV6-aptamer plasmids were first digested with EcoRI and XhoI and the fragments were ligated into EcoRI/XhoI-cut pGEX4T1. GST-aptamer fusions were expressed in a BL-21(DE3) E. coli strain. […] The samples were loaded onto a SDS-PAGE, transferred to nitrocellulose membrane, and calcineurin was detected by western-blotting using an anti-calcineurin pan A antibody (1/1000, Chemicon International). […]

For calmodulin [CaM, reference compound], the “activation of CNA phosphatase activity” value in data set [1] (addition of purified calmodulin, pNPP) is “required to activate CNA”.

B1: GST-R5G42: recombinant purified GST-aptamer fusion protein of R5G42 (protein)
chain: MVKQIESKTAFQEALDAAGDKLVVVDFSATWCGPSAVTFAVCALGPCKMIKPFFHSLSEKYSNVIFLEVDVDDCQDVASECEVKCMPTFQFFKKGQKVGEFSGANKEKLEATINELV
modifications: left off: a dimerising Fc or GST
Consider B1, for which the “capture of purified CNA by GST-aptamer solid phase” value in data set [2] is listed as “readily captured CNA”. Also, in data set [1] (high concentrations of GST-aptamer, pNPP, 0.1 μM calcineurin), the “CNA phosphatase activity in absence of CaM” value is recorded as “activated CNA phosphatase activity in absence of CaM, to a level comparable to that observed using CaM”. Besides, the “effect on CaM-activated CNA phosphatase activity” value in data set [1] (in presence of CaM (not shown)) is recorded as “did not result in an inhibition or an exacerbation”.

The record behind these values is US8440804B2, “Polypeptides having modulatory effects on cells” (Ecole Normale Superieure de Lyon, priority 2006, dated 2013).
